Laboratory results: doi:10.1101/2025.11.26.690650 (bioRxiv, 2025)
Read-outs that look alike come from different tables or passages of the source.

T1: TCV P38 (capsid protein, VSR) wild type (Turnip crinkle virus (pTCV cDNA), UniProt P06663 1-351)
T1 sequence: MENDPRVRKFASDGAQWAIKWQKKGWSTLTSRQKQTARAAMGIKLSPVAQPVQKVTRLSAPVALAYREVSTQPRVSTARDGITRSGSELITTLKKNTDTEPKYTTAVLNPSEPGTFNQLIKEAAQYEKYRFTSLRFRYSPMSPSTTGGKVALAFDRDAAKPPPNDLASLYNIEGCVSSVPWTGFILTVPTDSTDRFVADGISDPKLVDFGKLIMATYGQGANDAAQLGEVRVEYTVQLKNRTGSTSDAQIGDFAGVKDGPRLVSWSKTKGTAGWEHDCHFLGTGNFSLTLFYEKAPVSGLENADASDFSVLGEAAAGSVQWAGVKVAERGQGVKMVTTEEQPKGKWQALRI


Assays:
[1] = molecular target: TCV P38_W274A (Turnip crinkle virus) (UniProt P06663); test: native MS
[2] = molecular target: T1, TCV P38 (capsid protein, VSR) wild type; test: EMSA
[3] = molecular target: T1, TCV P38 (capsid protein, VSR) wild type; test: competition
[4] = molecular target: T1, TCV P38 (capsid protein, VSR) wild type; test: competition; remark: listed apart in the source
crystal structure = molecular target: the molecule itself; test: crystal structure
AUC = molecular target: the molecule itself; test: AUC
[5] = molecular target: T1, TCV P38 (capsid protein, VSR) wild type; test: competition; remark: listed apart in the source
[6] = molecular target: T1, TCV P38 (capsid protein, VSR) wild type; test: EMSA; remark: listed apart in the source
[7] = molecular target: T1, TCV P38 (capsid protein, VSR) wild type; test: EMSA; remark: listed apart in the source

Molecule	Kd [2] [nM]	Ki [3] [nM]	Ki [4] [nM]	other results
TCV P38_W274A (from UniProt P06663 1-351) (natural protein)	–	–	–	stoichiometry N [1]: 2
AtmiR168 (dsRNA, 5'-phosphate) RNA 1: UCGCUUGGUGCAGGUCGGGAA RNA 2: CCCGCCUUGCAUCAACUGAAU	0.55 ± 0.05	0.95 ± 0.3	0.7 ± 0.2	–
AtmiR162 (dsRNA, 5'-phosphate) RNA 1: UCGAUAAACCUCUGCAUCCAG RNA 2: GGAGGCAGCGGUUCAUCGAUC	0.3 ± 0.03	0.5 ± 0.15	0.33 ± 0.17	–
AtmiR403a (dsRNA, 5'-phosphate) RNA 1: UUAGAUUCACGCACAAACUCG RNA 2: UGUUUUGUGCUUGAAUCUAAUU	0.87 ± 0.13	–	–	–
Turnip crinkle virus P38 protein (TCV P38), wildtype (natural protein, UniProt P06663 1-351, looked up) MENDPRVRKFASDGAQWAIKWQKKGWSTLTSRQKQTARAAMGIKLSPVAQPVQKVTRLSAPVALAYREVSTQPRVSTARDGITRSGSELITTLKKNTDTEPKYTTAVLNPSEPGTFNQLIKEAAQYEKYRFTSLRFRYSPMSPSTTGGKVALAFDRDAAKPPPNDLASLYNIEGCVSSVPWTGFILTVPTDSTDRFVADGISDPKLVDFGKLIMATYGQGANDAAQLGEVRVEYTVQLKNRTGSTSDAQIGDFAGVKDGPRLVSWSKTKGTAGWEHDCHFLGTGNFSLTLFYEKAPVSGLENADASDFSVLGEAAAGSVQWAGVKVAERGQGVKMVTTEEQPKGKWQALRI	–	–	–	stoichiometry N (crystal structure): 60; stoichiometry N (AUC): 2
siR gf698_22 (dsRNA, 5'-phosphate) RNA 1: UAGUUCAUCCAUGCCAUGUGUA RNA 2: CACAUGGCAUGGAUGAACUAUA	0.53 ± 0.07	0.57 ± 0.06	0.35 ± 0.1	Ki [5]: 0.18 ± 0.05 nM
NbmiR403b (dsRNA, 5'-phosphate) RNA 1: UUAGAUUCACGCACAAACUCG RNA 2: UGUUUGUGCGUGAUUCUGACA	1.27 ± 0.1	–	–	–
siR gf698_24 (dsRNA, 5'-phosphate) RNA 1: UAGUUCAUCCAUGCCAUGUGUAAU RNA 2: UACACAUGGCAUGGAUGAACUAUA	0.44 ± 0.09	0.33 ± 0.03	0.33 ± 0.08	Ki [5]: 0.4 ± 0.1 nM
dsRNA_33 (dsRNA, 5'-phosphate) RNA 1: CUAAGAUGCUCGCUGCCAAUGAACGACCCUCCCUAA RNA 2: UUAGGGAGGGUCGUUCAUUGGCAGCGAGCAUCU	–	0.07 ± 0.03	0.06 ± 0.01	Kd [6]: 0.77 ± 0.05 nM; Ki [5]: 0.14 ± 0.03 nM
siR gf698_21 (dsRNA, 5'-phosphate) RNA 1: UAGUUCAUCCAUGCCAUGUGU RNA 2: ACAUGGCAUGGAUGAACUAUA	0.56 ± 0.09	0.7 ± 0.07	–	–
NbmiR403a (dsRNA, 5'-phosphate) RNA 1: UUAGAUUCACGCACAAACUCG RNA 2: UGUUUGUGCGUGAAUCUGACA	0.36 ± 0.05	–	–	–
UAGUUCAUCCAUGCCAUGUGU (ssRNA, 5'-phosphate) [ss gf698_21]	–	–	–	binding result [7]: no binding
UAGUUCAUCCAUGCCAUGUGUAAU (ssRNA, 5'-phosphate) [ss gf698_24]	–	–	–	binding result [7]: no binding
